Measurements as given in patent US20130102527A1.
Blank lines part the entries; values can stand above or below the substance they belong to.

Legend:
[1] = target: proteasome β5 subunit (chymotrypsin-like site) in human cells and cell extracts (human) (UniProt P28074); test: competition with activity-based probe in living HEK-293 cells, 4 h; Chym-L site
[2] = target: proteasome β2 subunit (trypsin-like site) in human cells and cell extracts (human) (UniProt Q99436); test: competition with activity-based probe in living HEK-293 cells, 4 h; Tr-L site
[3] = target: proteasome β2 subunit (trypsin-like site) in human cells and cell extracts (human) (UniProt Q99436); test: cell-based or functional assay
[4] = target: trypsin-like site (β2 subunit) of 26S proteasomes purified from rabbit muscle (rabbit) (UniProt G1SWK8); test: cell-based or functional assay
[5] = target: caspase-like site (β1 subunit) of 26S proteasomes purified from rabbit muscle (rabbit); test: cell-based or functional assay
[6] = target: proteasome β5 subunit (chymotrypsin-like site) in human cells and cell extracts (human) (UniProt P28074); test: cell-based or functional assay
[7] = target: chymotrypsin-like site (β5 subunit) of 26S proteasomes purified from rabbit muscle (rabbit) (UniProt G1T4Q9); test: cell-based or functional assay
[8] = target: proteasome β1 subunit (caspase-like site) in human cells and cell extracts (human) (UniProt P28072); test: cell-based or functional assay
[9] = target: chymotrypsin-like site (β5 subunit) of yeast 20S proteasome (S. cerevisiae) (UniProt P30656); test: cell-based or functional assay
[10] = target: trypsin-like site (β2 subunit) of yeast 20S proteasome (S. cerevisiae) (UniProt P25043); test: cell-based or functional assay
trypsin-like site (β2 subunit) of yeast 20S proteasome (S. cerevisiae), sequence (P25043 30-261): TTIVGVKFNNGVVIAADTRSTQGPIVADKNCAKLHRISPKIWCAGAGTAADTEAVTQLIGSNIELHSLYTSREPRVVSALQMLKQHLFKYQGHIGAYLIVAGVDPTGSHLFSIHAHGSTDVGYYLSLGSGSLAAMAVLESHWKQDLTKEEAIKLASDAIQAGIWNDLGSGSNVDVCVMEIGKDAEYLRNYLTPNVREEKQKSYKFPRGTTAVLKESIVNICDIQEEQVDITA

proteasome β5 subunit (chymotrypsin-like site) in human cells and cell extracts (human), sequence (P28074 60-263): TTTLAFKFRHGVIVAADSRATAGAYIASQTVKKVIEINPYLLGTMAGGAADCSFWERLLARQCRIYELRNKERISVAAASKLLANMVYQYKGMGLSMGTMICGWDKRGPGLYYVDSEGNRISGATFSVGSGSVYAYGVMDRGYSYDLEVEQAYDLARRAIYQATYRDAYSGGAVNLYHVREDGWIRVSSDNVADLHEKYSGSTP
proteasome β2 subunit (trypsin-like site) in human cells and cell extracts (human), sequence (Q99436 44-277): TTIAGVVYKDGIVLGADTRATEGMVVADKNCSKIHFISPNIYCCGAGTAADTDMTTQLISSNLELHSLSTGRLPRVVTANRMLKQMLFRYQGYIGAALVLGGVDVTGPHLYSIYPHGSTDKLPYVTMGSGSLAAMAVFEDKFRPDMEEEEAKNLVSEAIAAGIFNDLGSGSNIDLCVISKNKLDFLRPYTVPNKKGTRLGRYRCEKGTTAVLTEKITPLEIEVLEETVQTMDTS
proteasome β1 subunit (caspase-like site) in human cells and cell extracts (human), sequence (P28072 35-239): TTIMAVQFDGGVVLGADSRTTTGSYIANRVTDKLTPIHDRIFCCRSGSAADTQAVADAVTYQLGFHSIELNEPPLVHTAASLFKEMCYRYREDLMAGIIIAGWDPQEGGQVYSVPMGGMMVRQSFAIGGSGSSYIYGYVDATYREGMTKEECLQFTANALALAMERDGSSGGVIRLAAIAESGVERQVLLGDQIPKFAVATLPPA
chymotrypsin-like site (β5 subunit) of yeast 20S proteasome (S. cerevisiae), sequence (P30656 76-287): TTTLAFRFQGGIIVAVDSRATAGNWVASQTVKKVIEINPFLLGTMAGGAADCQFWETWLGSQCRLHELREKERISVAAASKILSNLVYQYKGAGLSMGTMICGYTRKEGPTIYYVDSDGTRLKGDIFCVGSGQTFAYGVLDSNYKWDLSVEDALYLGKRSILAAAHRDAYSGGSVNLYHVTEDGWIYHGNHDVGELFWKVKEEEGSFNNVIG
chymotrypsin-like site (β5 subunit) of 26S proteasomes purified from rabbit muscle (rabbit), sequence (G1T4Q9 entry or part of it): as the sequence (P28074 60-263) above, with E197D counted along it
trypsin-like site (β2 subunit) of 26S proteasomes purified from rabbit muscle (rabbit), sequence (G1SWK8 entry or part of it): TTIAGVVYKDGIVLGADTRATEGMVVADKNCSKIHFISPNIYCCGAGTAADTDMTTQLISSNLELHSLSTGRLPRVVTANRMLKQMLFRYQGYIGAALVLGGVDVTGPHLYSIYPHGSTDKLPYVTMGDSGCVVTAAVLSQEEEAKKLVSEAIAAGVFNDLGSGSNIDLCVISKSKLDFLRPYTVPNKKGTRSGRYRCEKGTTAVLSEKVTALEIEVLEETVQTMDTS

IC50 [1]: > 50 µM | IC50 [2]: 10 µM | IC50 (µM) for sites: Tr-L; NCI-H929 cells, 6 h, PROTEASOMEGLO [3]: 0.11 µM | IC50 (µM) for sites: Tr-L; RPMI-8226 cells, 6 h, PROTEASOMEGLO [3]: 0.58 µM | IC50 (µM) for sites: Tr-L [4]: 0.03 µM | IC50 (µM) for sites: Casp-L [5]: 30 µM | IC50 (µM) for sites: Chym-L; NCI-H929 cells, 6 h, PROTEASOMEGLO [6]: 3.6 µM | IC50 (µM) for sites: Chym-L; RPMI-8226 cells, 6 h, PROTEASOMEGLO [6]: 7.2 µM | IC50 (µM) for sites: Chym-L [7]: 3.4 µM | IC50 (µM) for sites: Casp-L; NCI-H929 cells, 6 h, PROTEASOMEGLO [8]: 22 µM | IC50 (µM) for sites: Casp-L; RPMI-8226 cells, 6 h, PROTEASOMEGLO [8]: > 30 µM
Substance: N3-Phe-Phe(4-NH2.TFA)-Leu-Phe(4-CH2NH2.TFA)-VS (51) (peptide)

Inhibition of active sites (% control): Trypsin-like sites, 1 h; KMS-12-BM, 11 nM carfilzomib [3]: -3% | Inhibition of active sites (% control): Trypsin-like sites, 1 h; KMS-12-BM, 33 nM carfilzomib [3]: 0% | Inhibition of active sites (% control): Trypsin-like sites, 1 h; KMS-12-BM, 100 nM carfilzomib [3]: 18% | Inhibition of active sites (% control): Trypsin-like sites, 1 h; KMS-12-BM, 300 nM carfilzomib [3]: 49% | Inhibition of active sites (% control): Trypsin-like sites, 1 h; KMS-12-BM, 900 nM carfilzomib [3]: 75% | Inhibition of active sites (% control): Trypsin-like sites, 1 h; NCI-H929, 3.7 nM carfilzomib [3]: -7% | Inhibition of active sites (% control): Trypsin-like sites, 1 h; NCI-H929, 11 nM carfilzomib [3]: 0% | Inhibition of active sites (% control): Trypsin-like sites, 1 h; NCI-H929, 33 nM carfilzomib [3]: 17% | Inhibition of active sites (% control): Trypsin-like sites, 6 h -NC-022; KMS-12-BM, 11 nM carfilzomib [3]: 5% | Inhibition of active sites (% control): Trypsin-like sites, 6 h -NC-022; KMS-12-BM, 33 nM carfilzomib [3]: 45% | Inhibition of active sites (% control): Trypsin-like sites, 6 h -NC-022; KMS-12-BM, 100 nM carfilzomib [3]: 62% | Inhibition of active sites (% control): Trypsin-like sites, 6 h -NC-022; KMS-12-BM, 300 nM carfilzomib [3]: 69% | Inhibition of active sites (% control): Trypsin-like sites, 6 h -NC-022; KMS-12-BM, 900 nM carfilzomib [3]: 72% | Inhibition of active sites (% control): Trypsin-like sites, 6 h -NC-022; NCI-H929, 3.7 nM carfilzomib [3]: 3% | Inhibition of active sites (% control): Trypsin-like sites, 6 h -NC-022; NCI-H929, 11 nM carfilzomib [3]: 39% | Inhibition of active sites (% control): Trypsin-like sites, 6 h -NC-022; NCI-H929, 33 nM carfilzomib [3]: 46% | Inhibition of active sites (% control): Chymotrypsin-like sites, 1 h; KMS-12-BM, 11 nM carfilzomib [6]: 75% | Inhibition of active sites (% control): Chymotrypsin-like sites, 1 h; KMS-12-BM, 33 nM carfilzomib [6]: 90% | Inhibition of active sites (% control): Chymotrypsin-like sites, 1 h; KMS-12-BM, 100 nM carfilzomib [6]: 95% | Inhibition of active sites (% control): Chymotrypsin-like sites, 1 h; KMS-12-BM, 300 nM carfilzomib [6]: 97% | Inhibition of active sites (% control): Chymotrypsin-like sites, 1 h; KMS-12-BM, 900 nM carfilzomib [6]: 98% | Inhibition of active sites (% control): Chymotrypsin-like sites, 1 h; NCI-H929, 3.7 nM carfilzomib [6]: 14% | Inhibition of active sites (% control): Chymotrypsin-like sites, 1 h; NCI-H929, 11 nM carfilzomib [6]: 39% | Inhibition of active sites (% control): Chymotrypsin-like sites, 1 h; NCI-H929, 33 nM carfilzomib [6]: 75% | Inhibition of active sites (% control): Chymotrypsin-like sites, 6 h -NC-022; KMS-12-BM, 11 nM carfilzomib [6]: 67% | Inhibition of active sites (% control): Chymotrypsin-like sites, 6 h -NC-022; KMS-12-BM, 33 nM carfilzomib [6]: 97% | Inhibition of active sites (% control): Chymotrypsin-like sites, 6 h -NC-022; KMS-12-BM, 100 nM carfilzomib [6]: 97% | Inhibition of active sites (% control): Chymotrypsin-like sites, 6 h -NC-022; KMS-12-BM, 300 nM carfilzomib [6]: 97% | Inhibition of active sites (% control): Chymotrypsin-like sites, 6 h -NC-022; KMS-12-BM, 900 nM carfilzomib [6]: 97% | Inhibition of active sites (% control): Chymotrypsin-like sites, 6 h -NC-022; NCI-H929, 3.7 nM carfilzomib [6]: 65.5% | Inhibition of active sites (% control): Chymotrypsin-like sites, 6 h -NC-022; NCI-H929, 11 nM carfilzomib [6]: 89% | Inhibition of active sites (% control): Chymotrypsin-like sites, 6 h -NC-022; NCI-H929, 33 nM carfilzomib [6]: 95%
Substance: carfilzomib (peptide)

IC50 (µM) for sites: Tr-L; NCI-H929 cells, 6 h, PROTEASOMEGLO [3]: 0.9 µM | IC50 (µM) for sites: Tr-L; RPMI-8226 cells, 6 h, PROTEASOMEGLO [3]: 24 µM | inhibition of the trypsin-like sites at 3 µM NC-022 within 4-6 hours, NCI-H929 cells [3]: 90% | inhibition of trypsin-like activity 5 hours after NC-022 addition, NCI-H929 and KMS-12-BM cells [3]: > 90% | inhibition of trypsin-like activity after a 6-hour incubation, MM cell lines [3]: > 90%
Substance: NC-022 (HMB-Val-Ser-Arg-ek) (peptide)

IC50 (µM) for sites: Tr-L; NCI-H929 cells, 6 h, PROTEASOMEGLO [3]: 0.2 µM | IC50 (µM) for sites: Tr-L; RPMI-8226 cells, 6 h, PROTEASOMEGLO [3]: 3.2 µM | IC50 (µM) for yeast 20S proteasome: Chym-L [9]: 19.3 µM | IC50 (µM) for sites: Chym-L; NCI-H929 cells, 6 h, PROTEASOMEGLO [6]: 13 µM | IC50 (µM) for sites: Chym-L; RPMI-8226 cells, 6 h, PROTEASOMEGLO [6]: 15 µM | IC50 (µM) for yeast 20S proteasome: Tr-L [10]: 1.6 µM
Substance: HMB-Val-Ser-Phe(4-CH2NH2)-VS (48) (peptide)
